Where a chain is given by its changes, count along the chain named. In names and notes the source's numbering stands.
B1: hIgG2.EEE.L368E.Ab1.Ab1/hIgG2.RRR.K409R.Ab2.Ab2 (bispecific antibody, part only; not given: Variable regions and light chains, not shown: another chain or arm of the molecule)
constant 1: ASTKGPSVFPLAPCSRSTSESTAALGCLVKDYFPEPVTVSWNSGALTSGVHTFPAVLQSSGLYSLSSVVTVPSSNFGTQTYTCNVDHKPSNTKVDKTVERKCEVECPECPAPPVAGPSVFLFPPKPKDTLMISRTPEVTCVVVDVSHEDPEVQFNWYVDGVEVHNAKTKPREEQFNSTFRVVSVLTVVHQDWLNGKEYKCKVSNKGLPSSIEKTISKTKGQPREPQVYTLPPSREEMTKNQVSLTCEVKGFYPSDIAVEWESNGQPENNYKTTPPMLDSDGSFFLYSKLTVDKSRWQQGNVFSCSVMHEALHNHYTQKSLSLSPGK
constant 2: B1 constant 1 with E103R, E105R, E108R, E247L, K288R

Molecular target: human-FcRn (neonatal Fc receptor) (human) (UniProt P55899)
Chain of UniProt P55899 (P55899 24-297 limits assumed, chain 1 of 2): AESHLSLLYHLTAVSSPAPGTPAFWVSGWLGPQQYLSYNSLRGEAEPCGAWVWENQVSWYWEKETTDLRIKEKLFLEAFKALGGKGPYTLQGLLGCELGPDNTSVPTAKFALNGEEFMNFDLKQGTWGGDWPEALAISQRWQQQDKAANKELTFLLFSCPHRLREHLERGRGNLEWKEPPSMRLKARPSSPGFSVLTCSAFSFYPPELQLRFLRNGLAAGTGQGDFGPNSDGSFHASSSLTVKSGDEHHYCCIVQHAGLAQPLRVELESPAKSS
Chain of UniProt P55899 (P61769 21-119 limits assumed, chain 2 of 2, further chain): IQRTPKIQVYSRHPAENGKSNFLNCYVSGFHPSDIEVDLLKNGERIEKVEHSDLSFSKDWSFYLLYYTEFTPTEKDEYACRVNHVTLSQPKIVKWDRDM
Assay: SPR (ProteOn XPR36), IgG amine-coupled on reaction spots, human FcRn injected in kinetic titration, pH 6.0

Molecule	Kd [nM]
hIgG2ΔA (control) (antibody)	983
B1	600

Source: patent publication US20130115208A1
